These results are taken from PMC8329185.

Broadly, the Kd is the equilibrium constant for the complex coming apart.

The target of experiment [1] is SNUPN (Homo sapiens) (UniProt O95149). Conditions: cited from earlier work.
Experiment [2] concerns the target GFP-CPSF6. Nature of the experiment: bead halo assay.
Experiment [3] addresses GFP-RPS6KA3. The experiment is described as follows: bead halo assay.
Experiment [4] addresses GFP-NELF. Nature of the experiment: bead halo assay.
Experiment [5] deals with GFP-SRSF7. The experiment is described as follows: bead halo assay.
Experiment [6] concerns the target GFP-TRAP1. Nature of the experiment: bead halo assay.
Experiment [7] has as its target EIF5A (Homo sapiens) (UniProt P63241). Conditions: cited from earlier work.

Chain of CRM1 (O14980 whole entry): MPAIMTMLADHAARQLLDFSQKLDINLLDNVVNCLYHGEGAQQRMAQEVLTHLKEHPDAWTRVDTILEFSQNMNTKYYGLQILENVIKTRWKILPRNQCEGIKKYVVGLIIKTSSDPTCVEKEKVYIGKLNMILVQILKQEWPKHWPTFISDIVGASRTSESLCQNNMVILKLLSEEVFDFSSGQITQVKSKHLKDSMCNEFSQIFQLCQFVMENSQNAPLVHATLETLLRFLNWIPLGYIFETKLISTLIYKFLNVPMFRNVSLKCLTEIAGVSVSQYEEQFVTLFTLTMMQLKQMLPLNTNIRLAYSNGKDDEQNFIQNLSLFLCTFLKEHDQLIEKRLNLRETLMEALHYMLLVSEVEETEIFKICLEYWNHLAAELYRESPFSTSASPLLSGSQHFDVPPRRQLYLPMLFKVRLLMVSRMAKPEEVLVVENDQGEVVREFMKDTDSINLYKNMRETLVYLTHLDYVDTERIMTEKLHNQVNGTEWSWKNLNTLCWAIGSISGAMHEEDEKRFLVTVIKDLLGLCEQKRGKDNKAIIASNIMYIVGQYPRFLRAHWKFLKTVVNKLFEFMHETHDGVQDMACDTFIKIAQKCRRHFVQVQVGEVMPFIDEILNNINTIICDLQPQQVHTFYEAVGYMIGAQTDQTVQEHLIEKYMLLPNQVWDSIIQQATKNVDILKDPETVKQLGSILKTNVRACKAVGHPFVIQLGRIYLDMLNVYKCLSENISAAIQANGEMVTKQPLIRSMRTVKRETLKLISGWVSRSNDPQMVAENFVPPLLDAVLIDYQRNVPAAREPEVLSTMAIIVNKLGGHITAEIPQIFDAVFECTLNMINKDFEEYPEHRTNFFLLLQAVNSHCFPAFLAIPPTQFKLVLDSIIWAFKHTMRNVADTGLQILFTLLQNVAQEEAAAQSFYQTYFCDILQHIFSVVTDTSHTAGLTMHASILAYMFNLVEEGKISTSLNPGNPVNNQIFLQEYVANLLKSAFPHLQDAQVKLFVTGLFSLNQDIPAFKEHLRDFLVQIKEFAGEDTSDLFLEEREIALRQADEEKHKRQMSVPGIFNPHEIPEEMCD
Chain of EIF5A (Homo sapiens) (P63241 2-154): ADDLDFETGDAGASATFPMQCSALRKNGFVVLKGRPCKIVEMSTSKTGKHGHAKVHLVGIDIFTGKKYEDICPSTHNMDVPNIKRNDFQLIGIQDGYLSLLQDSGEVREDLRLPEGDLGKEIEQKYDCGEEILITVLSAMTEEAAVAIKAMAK
Chain of SNUPN (Homo sapiens) (O95149 whole entry): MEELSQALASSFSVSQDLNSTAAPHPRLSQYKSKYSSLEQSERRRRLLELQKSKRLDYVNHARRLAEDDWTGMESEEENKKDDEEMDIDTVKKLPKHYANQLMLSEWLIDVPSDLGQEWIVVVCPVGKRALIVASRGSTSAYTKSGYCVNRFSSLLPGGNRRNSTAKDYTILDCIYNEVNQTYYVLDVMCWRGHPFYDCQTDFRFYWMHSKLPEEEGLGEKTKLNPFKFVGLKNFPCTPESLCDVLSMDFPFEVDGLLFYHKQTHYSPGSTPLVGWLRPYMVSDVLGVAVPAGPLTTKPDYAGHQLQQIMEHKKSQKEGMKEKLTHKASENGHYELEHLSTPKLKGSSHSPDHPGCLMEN
Chain of Xpo4 (Q9C0E2 whole entry): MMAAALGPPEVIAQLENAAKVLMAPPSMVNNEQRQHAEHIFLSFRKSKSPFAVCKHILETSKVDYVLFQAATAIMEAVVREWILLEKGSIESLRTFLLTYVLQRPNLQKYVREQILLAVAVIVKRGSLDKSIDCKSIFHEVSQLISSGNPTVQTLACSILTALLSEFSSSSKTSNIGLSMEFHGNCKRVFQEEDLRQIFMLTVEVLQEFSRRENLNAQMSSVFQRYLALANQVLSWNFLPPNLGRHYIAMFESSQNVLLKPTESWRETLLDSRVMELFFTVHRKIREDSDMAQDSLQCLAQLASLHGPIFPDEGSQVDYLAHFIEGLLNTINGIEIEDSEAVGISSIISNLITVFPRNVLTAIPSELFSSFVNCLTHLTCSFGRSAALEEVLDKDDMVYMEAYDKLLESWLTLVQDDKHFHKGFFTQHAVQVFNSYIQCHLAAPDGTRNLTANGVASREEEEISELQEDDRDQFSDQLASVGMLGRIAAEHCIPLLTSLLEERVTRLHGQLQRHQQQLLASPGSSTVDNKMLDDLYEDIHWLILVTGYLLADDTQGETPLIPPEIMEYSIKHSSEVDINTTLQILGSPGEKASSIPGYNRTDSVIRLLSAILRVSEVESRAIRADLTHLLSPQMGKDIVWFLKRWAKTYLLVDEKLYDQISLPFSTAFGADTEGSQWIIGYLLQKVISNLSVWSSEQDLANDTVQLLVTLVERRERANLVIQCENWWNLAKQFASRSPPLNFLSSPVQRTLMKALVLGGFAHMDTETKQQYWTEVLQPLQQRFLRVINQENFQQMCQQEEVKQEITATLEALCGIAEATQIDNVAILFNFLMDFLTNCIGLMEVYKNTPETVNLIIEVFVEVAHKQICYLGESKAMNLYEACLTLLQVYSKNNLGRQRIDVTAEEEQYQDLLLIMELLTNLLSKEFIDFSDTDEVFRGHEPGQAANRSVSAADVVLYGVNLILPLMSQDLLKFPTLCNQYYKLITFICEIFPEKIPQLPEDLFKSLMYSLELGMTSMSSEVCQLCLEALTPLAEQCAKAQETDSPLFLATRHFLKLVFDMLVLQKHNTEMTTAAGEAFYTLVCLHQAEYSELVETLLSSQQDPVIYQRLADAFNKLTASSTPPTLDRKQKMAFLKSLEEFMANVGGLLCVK

On to CRM1 (from UniProt O14980), for which the Kd in experiment [1] was 10 nM.
In the case of “GST-mCherry-TrnSR (WT) (from UniProt Q9Y5L0) D409R”, the response is 0.46 GFP/mCherry in experiment [2]; 0.13 GFP/mCherry in experiment [3]; 2.89 GFP/mCherry in experiment [4]; 0.67 GFP/mCherry in experiment [5]; 1.35 GFP/mCherry in experiment [6].
On to “GST-mCherry-TrnSR (WT) (from UniProt Q9Y5L0) E398R”, for which the response came to 0.15 GFP/mCherry in experiment [2]; 0.09 GFP/mCherry in experiment [3]; 1.14 GFP/mCherry in experiment [4]; 0.94 GFP/mCherry in experiment [5]; 1.11 GFP/mCherry in experiment [6].
The corresponding values for “GST-mCherry-TrnSR (WT) (from UniProt Q9Y5L0) R671E” are 0.15 GFP/mCherry, 0.37 GFP/mCherry, 0.5 GFP/mCherry, 0.26 GFP/mCherry and 1.16 GFP/mCherry.
In the case of Xpo4 (from UniProt Q9C0E2), the Kd in experiment [7] is 2 nM.
